This series has as its system Human whole blood. The experiment in a line: Cytokine release in whole blood at 24 hrs, MSD assay. Format: cell-based. Here is the method:
Human whole blood (Lithium heparin tubes) was taken from one donor (HTA #031219-06) at UCB Pharma Slough, UK according to approved ethical sample collection protocol.
In a Greiner 96-well non-binding microplate, Fab-X and Fab-Y combination 6294-X/4133-Y was added to PBS to give a Fab-KD-Fab concentration of 2000 nM. Similarly, stocks of 4133-6294 BYbe and NegCtrl BYbe were prepared in PBS at 2000 nM. The microplate was incubated for 1 hr at 37° C., 5% CO2. Following the incubation, Fab-KD-Fab and BYbe reagents were then serially diluted in PBS 1 in 5, seven times to produce to form an 8-point dose curve.
12.5 μl of Fab-KD-Fab or BYbe dilution was transferred into Corning Costar 96-well, cell culture treated, U-shaped-bottom microplate (cat no. 07-200-95) and 237.5 μl of whole blood added to each well. Final well concentrations of Fab-KD-Fab or BYbes were 100-0.00128 nM. […]
Measurement of cytokines was carried out using the V-PLEX Human Proinflammatory Panel I (4-Plex) (IFN-γ, IL-1β, IL-6, TNF-α, cat no. K15052D, Meso Scale Discovery) according to manufacturer's instructions. […] The plates were washed as before, and 150 μl of read buffer (diluted 1 in 2 in dH2O) was added to each well. The plates were then analysed on a SECTOR Imager 6000 (Meso Scale Discovery).

For the molecule “Campath: anti-CD52, clinical grade, indicated by FDA for B-cell Chronic Lymphocytic Leukaemia; positive control [reference compound]”, the “levels of IL-1β” value (Campath 10 μg/ml, other reagents 100-0.00128 nM) is on record as “marked level”.

B1: 4133-6294 BYbe: anti-CD45 BYbe (Fab-scFv): 4133 Fab HC-G4S linker-6294 scFv heavy chain paired with 4133 light chain (antibody)
heavy: QEQLVESGGGLVQPEGSLTLTCTASGFSFSGNYYMCWVRQAPGKGLEWIGCLYTGSSGSTYYASWAKGRFTISKTSSTTVTLQMTSLTAADTATYFCARDLGYEIDGYGGLWGQGTLVTVSSGQPKAPSVFPLAPCCGDTPSSTVTLGCLVKGYLPEPVTVTWNSGTLTNGVRTFPSVRQSSGLYSLSSVVSVTSSSQPVTCNVAHPATNTKVDKTVAPSTCSKPGGGGSGGGGSEVQLVESGAELARPGASVKMSCKASGYTFTSYTMHWVKQRPGQCLEWIGYINPSSGYTEYNQKFKDKTTLTADKSSSTAYLQLSSLTSEDSAVYYCARVGDGFYPSWLAYWGQGTLVTVSSGGGGSGGGGSGGGGSGGGGSDIQMTQSPKFLLVSAGDRVTITCKASQSVRNDVAWYQQKPGQSPKLLIFYASKRYTGVPDRFTGSGYGTDFTFTISTVQAEDLAVYFCQQDYSSPTTFGCGTKLEIK
light: AQVLTQTPSPVSAVVGGTVSISCQASQSVYNNNNLSWYQQKPGQPPKLLIYDASKLASGVPSRFKGSGSGTQFTLTISGVQCDDAATYYCLGGYYSSGWYFAFGGGTKVVVKRTPVAPTVLIFPPAADQVATGTVTIVCVANKYFPDVTVTWEVDGTTQTTGIENSKTPQNSADCTYNLSSTLTLTSTQYNSHKEYTCKVTQGTTSVVQSFNRGDC
Regarding B1, under “100-0.00128 nM, compared with PBS- and NegCtrl BYbe-treated wells”, the “induction of inflammatory cytokines (IFN-γ, IL-6, TNF-α)” value is on record as “little or no induction”.

(Values after patent US20230374148A1, “BINDING MOLECULES THAT MULTIMERISE CD45” (UCB BIOPHARMA SRL, priority 2020, published 2023).)
